According to patent publication US7122633 (Pfizer, dated 2006):

Target: T1, NKSF larger subunit, 40 kD (human, UniProt P29460 23-328)
T1 construct: also called 40 kD subunit; NKSF heavy chain
T1 sequence: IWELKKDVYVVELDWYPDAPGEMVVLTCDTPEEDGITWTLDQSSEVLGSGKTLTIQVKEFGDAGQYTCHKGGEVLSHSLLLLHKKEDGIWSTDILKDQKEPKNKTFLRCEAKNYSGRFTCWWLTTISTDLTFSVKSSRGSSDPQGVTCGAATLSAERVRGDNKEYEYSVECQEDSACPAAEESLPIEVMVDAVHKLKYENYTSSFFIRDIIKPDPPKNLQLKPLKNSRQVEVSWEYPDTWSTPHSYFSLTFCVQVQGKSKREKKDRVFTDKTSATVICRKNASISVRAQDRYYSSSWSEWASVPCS
Assay: SDS-PAGE of the iodinated 70 kD species, non-reduced against reduced with β-mercaptoethanol
Method: SDS-PAGE was performed according to the method of Laemmli [Laemmli, U. K., *Nature*, 227:680–685 (1970)] on 10% acrylamide slab gels (0.75 mm thickness). After electrophoresis the gels were either stained by the silver-nitrate method using a silver staining reagents [BioRad] or cut into 2 mm slices and eluted in 0.5 ml RPMI medium for 4 hours at 24° C. and assayed for NKSF activity. Apparent molecular weight was determined with protein standards, […] (94 kD), bovine serum albumin (67 kD), ovalbumin (43 kD), carbonic anhydrase (30 kD), soybean trypsin inhibitor (20 kD) and lactalbumin (14.4 kD).
The 70 kD species was eluted from the gel, iodinated using chloramine T [Sigma, St. Louis, Mo.] and rerun on a second SDS gel after boiling for two minutes in the presence of the reducing agent, β-mercaptoethanol (10%). […] Alternatively, NKSF may be a dimer formed by multiples of the larger or smaller subunits. The reduction of the native 70 kD NKSF appeared to destroy all of its ability to induce peripheral blood lymphocyte production of gamma interferon.

B1: NKSF smaller subunit, 30-35 kD (other)
chain: RNLPVATPDPGMFPCLHHSQNLLRAVSNMLQKARQTLEFYPCTSEEIDHEDITKDKTSTVEACLPLELTKNESCLNSRETSFITNGSCLASRKTSFMMALCLSSIYEDLKMYQVEFKTMNAKLLMDPKRQIFLDQNMLAVIDELMQALNFNSETVPQKSSLEEPDFYKTKIKLCILLHAFRIRAVTIDRVMSYLNAS
notes: also called 30 kD subunit; 30 kD (smaller version)
B1: binds.
